The record followed here is patent CN116693678A.

The target in experiment [1] is 肺炎支原体天然抗原(购自Microbix) (Mycoplasma pneumoniae). In words: indirect ELISA on coated antigen (2 ug/ml), antibody 0.15 ng/ml. A general note: ELISA stands for enzyme-linked immunosorbent assay.
The target is the same in experiment [2]. Nature of the experiment: indirect ELISA on coated antigen (2 ug/ml), antibody 12.35 ng/ml.
For experiment [3] the target is unchanged. Nature of the experiment: indirect ELISA on coated antigen (2 ug/ml), antibody 0 ng/ml (blank well).
Experiment [4] shares this target. In words: indirect ELISA on coated antigen (2 ug/ml), antibody 1.37 ng/ml.
Experiment [5] has the same target. In words: indirect ELISA on coated antigen (2 ug/ml), antibody 4.12 ng/ml.
The target is the same in experiment [6]. In words: indirect ELISA on coated antigen (2 ug/ml), antibody 0.46 ng/ml.

Turning to 对照 (antibody), the OD值 (450nm, 参考630nm) in experiment [1] was determined as 0.068 OD; in experiment [2] it was 1.21 OD; in experiment [3] it was 0.015 OD; in experiment [4] it was 0.208 OD; in experiment [5] it was 0.499 OD; in experiment [6], 0.111 OD.

B1: Anti-MP-11F5mut1 (antibody, mouse IgG1, kappa, V domains shown)
VH: QVQLQQSGPELVKPGALVKISCKASGYTFTSFDINWVKQRPGQGLEWIGYIYPGDGSTKYNEKFKGKATLTADKSSSTAYMQFSSLTSENSAVYFCTRKGGWGAGHSAMDYWGQGTSVTVSS
VL: DIQMTQTTSSLSASLGDRVTISCRASQAIGNYLNWYQQRPDGTVKLLIYYTSRKNSGAPSRFSGSGSGTDYSITISNLDQEDIATYFCQQGYTTPYTFGGGTKLEIKR
With B1, the OD值 (450nm, 参考630nm) in experiment [1] is 0.156 OD; in experiment [2], 1.89 OD; in experiment [3], 0.038 OD; in experiment [4], 0.295 OD; in experiment [5], 0.815 OD; in experiment [6] it was 0.201 OD.

B2: Anti-MP-11F5mut5 (antibody, mouse IgG1, kappa, V domains shown)
VH: QVQLQQSGPELVKPGALVKISCKASGYTFTSFDINWVKQRPGQGLEWIGYIYPGDGSTKYNEKFKGKATLTADKSSSTAYMQFSSLTSENSAVYFCTRKGGWGAGHSAMDYWGQGTSVTVSS
VL: DIQMTQTTSSLSASLGDRVTISCRASQAISNYLNWYQQRPDGTVKLLIYYTSRKNSGAPSRFSGSGSGTDYSLTISNIDQEDIATYFCQQGYTTPYTFGGGTKLEIKR
Turning to B2, the OD值 (450nm, 参考630nm) in experiment [1] was 0.163 OD; in experiment [2], 2.02 OD; in experiment [3] it was 0.038 OD; in experiment [4] it was 0.316 OD; in experiment [5] it was 0.837 OD; in experiment [6], 0.241 OD.

B3: Anti-MP-11F5mut6 (antibody, mouse IgG1, kappa, V domains shown)
VH: QVQLQQSGPELVKPGALVKISCKASGYTFTSFDINWVKQRPGQGLEWIGYIYPGDGSTKYNEKFKGKATLTADKSSSTAYMQFSSLTSEDSAVYFCTRKGGWGAGHSAMDYWGQGTSVTVSS
VL: DIQMTQTTSSLSASLGDRVTISCRASQAISNYINWYQQRPDGTVKLLIYYTSRKNSGAPSRFSGSGSGTDYSLTISNLDQEDIATYFCQQGYTTPYTFGGGTKLEIKR
With B3, the OD值 (450nm, 参考630nm) in experiment [1] was determined as 0.174 OD; in experiment [2] it was 1.92 OD; in experiment [3] it was 0.063 OD; in experiment [4], 0.445 OD; in experiment [5], 0.85 OD; in experiment [6], 0.276 OD.

B4: Anti-MP-11F5mut4 (antibody, mouse IgG1, kappa, V domains shown)
VH: QVQLQQSGPELVKPGALVKISCKASGYTFTSFDINWVKQRPGQGLEWIGYIYPGDGSTKYNEKFKGKATLTADKSSSTAYMQFSSLTSENSAVYFCTRKGGWGAGHSAMDYWGQGTSVTVSS
VL: DIQMTQTTSSLSASLGDRVTISCRASQAISNYINWYQQRPDGTVKLLIYYTSRKNSGAPSRFSGSGSGTDYSLTISNLDQEDIATYFCQQGYTTPYTFGGGTKLEIKR
With B4, the OD值 (450nm, 参考630nm) came out at 0.374 OD in experiment [1]; 1.96 OD in experiment [2]; 0.042 OD in experiment [3]; 1.26 OD in experiment [4]; 1.92 OD in experiment [5]; 0.49 OD in experiment [6].

B5: Anti-MP-11F5mut7 (antibody, mouse IgG1, kappa, V domains shown)
VH: QVQLQQSGPELVKPGALVKISCKASGYTFTSFDINWVKQRPGQGLEWIGYIYPGDGSTKYNEKFKGKATLTADKSSSTAYMQFSSLTSENSAVYFCTRKGGWGAGHSAMDYWGQGTSVTVSS
VL: DIQMTQTTSSLSASLGDRVTISCRASQAISNYINWYQQRPDGTVKLLIYYTSRKNSGAPSRFSGSGSGTDYSLTISNIDQEDIATYFCQQGYTTPYTFGGGTKLEIKR
For B5, the OD值 (450nm, 参考630nm) in experiment [1] amounted to 0.365 OD; in experiment [2] it was 1.91 OD; in experiment [3], 0.032 OD; in experiment [4] it was 0.643 OD; in experiment [5], 1.51 OD; in experiment [6], 0.4 OD.

B6: Anti-MP-11F5mut8 (antibody, mouse IgG1, kappa, V domains shown)
VH: QVQLQQSGPELVKPGALVKISCKASGYTFTSFDINWVKQRPGQGLEWIGYIYPGDGSTKYNEKFKGKATLTADKSSSTAYMQFSSLTSEDSAVYFCTRKGGWGAGHSAMDYWGQGTSVTVSS
VL: DIQMTQTTSSLSASLGDRVTISCRASQAISNYINWYQQRPDGTVKLLIYYTSRKNSGAPSRFSGSGSGTDYSLTISNIDQEDIATYFCQQGYTTPYTFGGGTKLEIKR
B6: the OD值 (450nm, 参考630nm) in experiment [1] was determined as 0.489 OD; in experiment [2] it was 1.93 OD; in experiment [3] it was 0.034 OD; in experiment [4], 1.27 OD; in experiment [5], 1.64 OD; in experiment [6], 0.56 OD.
